Assays:
Interleukin-6 (IL6) [1] = molecular target: T1, Interleukin-6 (IL6) (human, UniProt P05231 30-212); assay: EIS (electrochemical aptasensor); [Fe(CN)6]4- redox probe; phase shift; Hill fit, coefficient fixed at 1; Aptamer on GNR-functionalized gold electrodes, [Fe(CN)6]4- redox probe; sensing buffer, pH and temperature not given in the material (aptamer clicked in PBS 1X); conditions: protein: commercial
Interleukin-6 (IL6) [2] = molecular target: T1, Interleukin-6 (IL6); assay: DPV (electrochemical aptasensor); [Fe(CN)6]4- redox probe; Hill fit, coefficient fixed at 1; Aptamer on GNR-functionalized gold electrodes, [Fe(CN)6]4- redox probe; sensing buffer, pH and temperature not given in the material (aptamer clicked in PBS 1X); conditions: protein: commercial

T1 sequence (P05231 30-212): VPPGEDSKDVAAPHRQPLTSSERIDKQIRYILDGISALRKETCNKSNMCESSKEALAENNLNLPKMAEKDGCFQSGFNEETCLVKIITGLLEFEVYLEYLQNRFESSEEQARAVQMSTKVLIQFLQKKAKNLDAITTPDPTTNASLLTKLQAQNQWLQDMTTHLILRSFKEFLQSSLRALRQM

B1: IL6 DNA aptamer (azide-modified) (ssDNA)
DNA: TTTTTTCTTCCAACGCTCGTATTGTCAGTCTTTAGT
modifications: 5' azide (/5AzideN/), clicked by CuAAC to alkyne graphene nanoribbons on gold electrode
Kd (Interleukin-6 (IL6) [1]): 10.4 ± 3.1 nM
Kd (Interleukin-6 (IL6) [2]): 3.4 ± 0.4 nM
